Literature values in PMC8495453.

Biological target: Galectin-3 (Homo sapiens) (UniProt P17931)
Sequence (P17931 2-250): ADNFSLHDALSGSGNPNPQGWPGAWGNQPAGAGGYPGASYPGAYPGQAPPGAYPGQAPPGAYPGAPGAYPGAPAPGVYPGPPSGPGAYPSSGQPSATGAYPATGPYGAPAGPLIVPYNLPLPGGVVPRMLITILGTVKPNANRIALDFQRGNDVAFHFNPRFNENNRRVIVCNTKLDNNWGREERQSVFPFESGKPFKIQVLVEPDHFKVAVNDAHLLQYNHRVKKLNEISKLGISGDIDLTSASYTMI

LAMP1 29-382, sequence (P11279 29-382): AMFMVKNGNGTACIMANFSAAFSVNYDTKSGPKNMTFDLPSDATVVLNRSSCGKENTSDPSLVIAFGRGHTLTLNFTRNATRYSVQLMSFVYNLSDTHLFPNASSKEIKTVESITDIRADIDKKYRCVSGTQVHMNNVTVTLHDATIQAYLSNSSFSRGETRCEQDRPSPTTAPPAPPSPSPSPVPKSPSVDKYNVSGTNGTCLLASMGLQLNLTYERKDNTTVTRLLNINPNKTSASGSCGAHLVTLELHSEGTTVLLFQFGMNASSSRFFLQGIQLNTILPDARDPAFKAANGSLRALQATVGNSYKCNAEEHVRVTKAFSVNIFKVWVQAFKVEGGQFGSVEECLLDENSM

Kd: < 25 nM
Substance: LAMP1 29-382 (from UniProt P11279)
